# Measurements taken from US20260201008A1, “SECRETIN-DERIVED GLP1R SELECTIVE AGONISTS” (GUBRA A/S, priority 2023, published 2026).
# Numbered stars: 1 amine (or outer) side, 2 acyl side, 3 side chain; on linkers, the order of the positions; unused ones are H or OH. Square brackets hold non-standard residues; d marks the D form. Side chains are listed from the residue outwards. Ends that are not written are not given here. * marks the point of attachment. C20 diacid = O=C(O)CCCCCCCCCCCCCCCCCCC(=O)*; γGlu = O=C(O)[C@H](CCC(=O)[*:2])N[*:1]; AEEA = NCCOCCOCC(=O)O; Aib = CC(C)(N)C(=O)O
# B1: SEQ ID NO: 200 (peptide)
# peptide: H[Aib]EGTFTSDYSWLLEGAALQRFIQWLV-NH2
# modifications: N-terminus assumed
# SMILES: CC[C@H](C)[C@H](NC(=O)[C@H](Cc1ccccc1)NC(=O)[C@H](CCCNC(=N)N)NC(=O)[C@H](CCC(N)=O)NC(=O)[C@H](CC(C)C)NC(=O)[C@H](C)NC(=O)[C@H](C)NC(=O)CNC(=O)[C@H](CCC(=O)O)NC(=O)[C@H](CC(C)C)NC(=O)[C@H](CC(C)C)NC(=O)[C@H](Cc1c[nH]c2ccccc12)NC(=O)[C@H](CO)NC(=O)[C@H](Cc1ccc(O)cc1)NC(=O)[C@H](CC(=O)O)NC(=O)[C@H](CO)NC(=O)[C@@H](NC(=O)[C@H](Cc1ccccc1)NC(=O)[C@@H](NC(=O)CNC(=O)[C@H](CCC(=O)O)NC(=O)C(C)(C)NC(=O)[C@@H](N)Cc1c[nH]cn1)[C@@H](C)O)[C@@H](C)O)C(=O)N[C@@H](CCC(N)=O)C(=O)N[C@@H](Cc1c[nH]c2ccccc12)C(=O)N[C@@H](CC(C)C)C(=O)N[C@H](C(N)=O)C(C)C
# B2: SEQ ID NO: 199 (peptide)
# peptide: H[Aib]EGTFTSDYSELLEGAALQRFIQWLV-NH2
# modifications: N-terminus assumed
# SMILES: CC[C@H](C)[C@H](NC(=O)[C@H](Cc1ccccc1)NC(=O)[C@H](CCCNC(=N)N)NC(=O)[C@H](CCC(N)=O)NC(=O)[C@H](CC(C)C)NC(=O)[C@H](C)NC(=O)[C@H](C)NC(=O)CNC(=O)[C@H](CCC(=O)O)NC(=O)[C@H](CC(C)C)NC(=O)[C@H](CC(C)C)NC(=O)[C@H](CCC(=O)O)NC(=O)[C@H](CO)NC(=O)[C@H](Cc1ccc(O)cc1)NC(=O)[C@H](CC(=O)O)NC(=O)[C@H](CO)NC(=O)[C@@H](NC(=O)[C@H](Cc1ccccc1)NC(=O)[C@@H](NC(=O)CNC(=O)[C@H](CCC(=O)O)NC(=O)C(C)(C)NC(=O)[C@@H](N)Cc1c[nH]cn1)[C@@H](C)O)[C@@H](C)O)C(=O)N[C@@H](CCC(N)=O)C(=O)N[C@@H](Cc1c[nH]c2ccccc12)C(=O)N[C@@H](CC(C)C)C(=O)N[C@H](C(N)=O)C(C)C
# B3: SEQ ID NO: 192 (peptide)
# peptide: H[Aib]EGTFTSDWS[Aib]LLEGAALQRFIQWLV-NH2
# modifications: N-terminus assumed
# SMILES: CC[C@H](C)[C@H](NC(=O)[C@H](Cc1ccccc1)NC(=O)[C@H](CCCNC(=N)N)NC(=O)[C@H](CCC(N)=O)NC(=O)[C@H](CC(C)C)NC(=O)[C@H](C)NC(=O)[C@H](C)NC(=O)CNC(=O)[C@H](CCC(=O)O)NC(=O)[C@H](CC(C)C)NC(=O)[C@H](CC(C)C)NC(=O)C(C)(C)NC(=O)[C@H](CO)NC(=O)[C@H](Cc1c[nH]c2ccccc12)NC(=O)[C@H](CC(=O)O)NC(=O)[C@H](CO)NC(=O)[C@@H](NC(=O)[C@H](Cc1ccccc1)NC(=O)[C@@H](NC(=O)CNC(=O)[C@H](CCC(=O)O)NC(=O)C(C)(C)NC(=O)[C@@H](N)Cc1c[nH]cn1)[C@@H](C)O)[C@@H](C)O)C(=O)N[C@@H](CCC(N)=O)C(=O)N[C@@H](Cc1c[nH]c2ccccc12)C(=O)N[C@@H](CC(C)C)C(=O)N[C@H](C(N)=O)C(C)C
# B4: SEQ ID NO: 197 (peptide)
# peptide: H[Aib]EGTFTSDYS[Aib]LLEGAALQRFIQWLV-NH2
# modifications: N-terminus assumed
# SMILES: CC[C@H](C)[C@H](NC(=O)[C@H](Cc1ccccc1)NC(=O)[C@H](CCCNC(=N)N)NC(=O)[C@H](CCC(N)=O)NC(=O)[C@H](CC(C)C)NC(=O)[C@H](C)NC(=O)[C@H](C)NC(=O)CNC(=O)[C@H](CCC(=O)O)NC(=O)[C@H](CC(C)C)NC(=O)[C@H](CC(C)C)NC(=O)C(C)(C)NC(=O)[C@H](CO)NC(=O)[C@H](Cc1ccc(O)cc1)NC(=O)[C@H](CC(=O)O)NC(=O)[C@H](CO)NC(=O)[C@@H](NC(=O)[C@H](Cc1ccccc1)NC(=O)[C@@H](NC(=O)CNC(=O)[C@H](CCC(=O)O)NC(=O)C(C)(C)NC(=O)[C@@H](N)Cc1c[nH]cn1)[C@@H](C)O)[C@@H](C)O)C(=O)N[C@@H](CCC(N)=O)C(=O)N[C@@H](Cc1c[nH]c2ccccc12)C(=O)N[C@@H](CC(C)C)C(=O)N[C@H](C(N)=O)C(C)C
# B5: SEQ ID NO: 191 (peptide)
# peptide: H[Aib]EGTFTSDWSWLLEGAALQRFIQWLV-NH2
# modifications: N-terminus assumed
# SMILES: CC[C@H](C)[C@H](NC(=O)[C@H](Cc1ccccc1)NC(=O)[C@H](CCCNC(=N)N)NC(=O)[C@H](CCC(N)=O)NC(=O)[C@H](CC(C)C)NC(=O)[C@H](C)NC(=O)[C@H](C)NC(=O)CNC(=O)[C@H](CCC(=O)O)NC(=O)[C@H](CC(C)C)NC(=O)[C@H](CC(C)C)NC(=O)[C@H](Cc1c[nH]c2ccccc12)NC(=O)[C@H](CO)NC(=O)[C@H](Cc1c[nH]c2ccccc12)NC(=O)[C@H](CC(=O)O)NC(=O)[C@H](CO)NC(=O)[C@@H](NC(=O)[C@H](Cc1ccccc1)NC(=O)[C@@H](NC(=O)CNC(=O)[C@H](CCC(=O)O)NC(=O)C(C)(C)NC(=O)[C@@H](N)Cc1c[nH]cn1)[C@@H](C)O)[C@@H](C)O)C(=O)N[C@@H](CCC(N)=O)C(=O)N[C@@H](Cc1c[nH]c2ccccc12)C(=O)N[C@@H](CC(C)C)C(=O)N[C@H](C(N)=O)C(C)C
# B6: SEQ ID NO: 198 (peptide)
# peptide: H[Aib]EGTFTSDYSVLLEGAALQRFIQWLV-NH2
# modifications: N-terminus assumed
# SMILES: CC[C@H](C)[C@H](NC(=O)[C@H](Cc1ccccc1)NC(=O)[C@H](CCCNC(=N)N)NC(=O)[C@H](CCC(N)=O)NC(=O)[C@H](CC(C)C)NC(=O)[C@H](C)NC(=O)[C@H](C)NC(=O)CNC(=O)[C@H](CCC(=O)O)NC(=O)[C@H](CC(C)C)NC(=O)[C@H](CC(C)C)NC(=O)[C@@H](NC(=O)[C@H](CO)NC(=O)[C@H](Cc1ccc(O)cc1)NC(=O)[C@H](CC(=O)O)NC(=O)[C@H](CO)NC(=O)[C@@H](NC(=O)[C@H](Cc1ccccc1)NC(=O)[C@@H](NC(=O)CNC(=O)[C@H](CCC(=O)O)NC(=O)C(C)(C)NC(=O)[C@@H](N)Cc1c[nH]cn1)[C@@H](C)O)[C@@H](C)O)C(C)C)C(=O)N[C@@H](CCC(N)=O)C(=O)N[C@@H](Cc1c[nH]c2ccccc12)C(=O)N[C@@H](CC(C)C)C(=O)N[C@H](C(N)=O)C(C)C
# B7: SEQ ID NO: 195 (peptide)
# peptide: H[Aib]EGTFTSDYSGLLEGAALQRFIQWLV-NH2
# modifications: N-terminus assumed
# SMILES: CC[C@H](C)[C@H](NC(=O)[C@H](Cc1ccccc1)NC(=O)[C@H](CCCNC(=N)N)NC(=O)[C@H](CCC(N)=O)NC(=O)[C@H](CC(C)C)NC(=O)[C@H](C)NC(=O)[C@H](C)NC(=O)CNC(=O)[C@H](CCC(=O)O)NC(=O)[C@H](CC(C)C)NC(=O)[C@H](CC(C)C)NC(=O)CNC(=O)[C@H](CO)NC(=O)[C@H](Cc1ccc(O)cc1)NC(=O)[C@H](CC(=O)O)NC(=O)[C@H](CO)NC(=O)[C@@H](NC(=O)[C@H](Cc1ccccc1)NC(=O)[C@@H](NC(=O)CNC(=O)[C@H](CCC(=O)O)NC(=O)C(C)(C)NC(=O)[C@@H](N)Cc1c[nH]cn1)[C@@H](C)O)[C@@H](C)O)C(=O)N[C@@H](CCC(N)=O)C(=O)N[C@@H](Cc1c[nH]c2ccccc12)C(=O)N[C@@H](CC(C)C)C(=O)N[C@H](C(N)=O)C(C)C
# B8: SEQ ID NO: 190 (peptide)
# peptide: H[Aib]EGTFTSDWSFLLEGAALQRFIQWLV-NH2
# modifications: N-terminus assumed
# SMILES: CC[C@H](C)[C@H](NC(=O)[C@H](Cc1ccccc1)NC(=O)[C@H](CCCNC(=N)N)NC(=O)[C@H](CCC(N)=O)NC(=O)[C@H](CC(C)C)NC(=O)[C@H](C)NC(=O)[C@H](C)NC(=O)CNC(=O)[C@H](CCC(=O)O)NC(=O)[C@H](CC(C)C)NC(=O)[C@H](CC(C)C)NC(=O)[C@H](Cc1ccccc1)NC(=O)[C@H](CO)NC(=O)[C@H](Cc1c[nH]c2ccccc12)NC(=O)[C@H](CC(=O)O)NC(=O)[C@H](CO)NC(=O)[C@@H](NC(=O)[C@H](Cc1ccccc1)NC(=O)[C@@H](NC(=O)CNC(=O)[C@H](CCC(=O)O)NC(=O)C(C)(C)NC(=O)[C@@H](N)Cc1c[nH]cn1)[C@@H](C)O)[C@@H](C)O)C(=O)N[C@@H](CCC(N)=O)C(=O)N[C@@H](Cc1c[nH]c2ccccc12)C(=O)N[C@@H](CC(C)C)C(=O)N[C@H](C(N)=O)C(C)C
# B9: SEQ ID NO: 193 (peptide)
# peptide: H[Aib]EGTFTSDWSELLEGAALQRFIQWLV-NH2
# modifications: N-terminus assumed
# SMILES: CC[C@H](C)[C@H](NC(=O)[C@H](Cc1ccccc1)NC(=O)[C@H](CCCNC(=N)N)NC(=O)[C@H](CCC(N)=O)NC(=O)[C@H](CC(C)C)NC(=O)[C@H](C)NC(=O)[C@H](C)NC(=O)CNC(=O)[C@H](CCC(=O)O)NC(=O)[C@H](CC(C)C)NC(=O)[C@H](CC(C)C)NC(=O)[C@H](CCC(=O)O)NC(=O)[C@H](CO)NC(=O)[C@H](Cc1c[nH]c2ccccc12)NC(=O)[C@H](CC(=O)O)NC(=O)[C@H](CO)NC(=O)[C@@H](NC(=O)[C@H](Cc1ccccc1)NC(=O)[C@@H](NC(=O)CNC(=O)[C@H](CCC(=O)O)NC(=O)C(C)(C)NC(=O)[C@@H](N)Cc1c[nH]cn1)[C@@H](C)O)[C@@H](C)O)C(=O)N[C@@H](CCC(N)=O)C(=O)N[C@@H](Cc1c[nH]c2ccccc12)C(=O)N[C@@H](CC(C)C)C(=O)N[C@H](C(N)=O)C(C)C
# Key:
# [1] = target: human GLP-1 receptor (hGLP1R) (human, UniProt P43220 24-463); test: cell-based or functional assay
# [2] = target: human secretin receptor (hSCTR) (human, UniProt P47872 23-440); test: cell-based or functional assay
# Sequence of human secretin receptor (hSCTR) (P47872 23-440): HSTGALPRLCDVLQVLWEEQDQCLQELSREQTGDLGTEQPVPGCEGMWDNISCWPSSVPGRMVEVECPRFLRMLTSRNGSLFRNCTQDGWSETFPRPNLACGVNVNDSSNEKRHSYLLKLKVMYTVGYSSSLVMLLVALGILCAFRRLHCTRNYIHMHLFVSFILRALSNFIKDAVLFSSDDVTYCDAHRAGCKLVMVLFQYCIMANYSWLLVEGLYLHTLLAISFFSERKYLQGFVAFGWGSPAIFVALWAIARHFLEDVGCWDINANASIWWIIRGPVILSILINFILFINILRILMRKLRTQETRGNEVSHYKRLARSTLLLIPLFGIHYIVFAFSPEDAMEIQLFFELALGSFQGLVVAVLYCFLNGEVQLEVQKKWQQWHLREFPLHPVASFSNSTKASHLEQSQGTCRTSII
Binder,pEC50 hGLPR1 [1],pEC50 hSCTR [2]
B1,10.7 -log M,8.1 -log M
B2,10.6 -log M,8.3 -log M
B3,9.9 -log M,7.3 -log M
B4,10.8 -log M,8.1 -log M
B5,10.1 -log M,7.2 -log M
B6,10.6 -log M,8.3 -log M
B7,10.6 -log M,8 -log M
H[Aib]EGTFTSDVSTLK([AEEA-AEEA-γGlu-C20 diacid])ETAASQRFLEHLV-NH2 [SEQ ID NO: 20],10.7 -log M,6.4 -log M
B8,10.2 -log M,7 -log M
B9,10.6 -log M,7.9 -log M
H[Aib]EGTFTSDYSYLK([AEEA-AEEA-γGlu-C20 diacid])EEA[Aib]LQRFLEHLV-NH2 [SEQ ID NO: 196],10.9 -log M,7.7 -log M
